Values quoted from earlier work, collected in patent publication US20190382746.

Columns and labels:
[1] = system: PP7 coat protein (Pseudomonas phage PP7); details: CITED? source not stated; cited from earlier work
[2] = system: RSG1.2 peptide (synthetic); details: CITED? source not stated; cited from earlier work

Row | Substance | Kd [1] [nM] | Kd [2] [nM]
1 | PP7 aptamer (25 nt) | 2 | –
2 | RSG1.2 aptamer (HIV RRE, 34 nt) | – | 6
